In PMC4013577:

Columns and labels:
anti-hIgG (IgG2a) [1] = experiment: SPR; Autolab ESPRIT, room temperature, PBS pH 7.4; anti-hIgG adsorbed on the Cal-4 derivative 1 (ethylester) SAM on gold, blocked with 0.1 mg/mL BSA, then 100 μL of 10 μg/mL protein G
anti-hIgG (IgG2a) [2] = experiment: SPR; Autolab ESPRIT, room temperature, PBS pH 7.4; anti-hIgG adsorbed on the Cal-4 derivative 2 (carboxylic acid) SAM on gold, blocked with 0.1 mg/mL BSA, then 100 μL of 10 μg/mL protein G

“Protein G (from UniProt P06654 34-417) (natural protein)” gave an SPR angle shift (anti-hIgG (IgG2a) [1]) of 32.6 m° and an SPR angle shift (anti-hIgG (IgG2a) [2]) of 94 m°.
